From article PMC6441041 come the findings set out here.

The target of assay [1] is SH1 membrane-associated protein VP12 (haloarchaeal virus SH1). The experiment in a line: cryo-EM structure; purified SH1 virions with and without spikes, data merged; icosahedral and block-based/localised reconstruction of the capsid, 3.8 Å; 20 mM Tris-HCl pH 7.2, 1 M NaCl, 10 mM MnCl2.
In assay [2] the target is SH1 penton protein VP9 (haloarchaeal virus SH1). Put plainly: cryo-EM structure; asymmetric (C1) localised reconstruction of the whole 5-fold vertex of spike-containing virions, overall 7.2 Å.

For orientation: stoichiometry N means a count of units in the complex or per binding partner. The substance “SH1 membrane-associated protein VP12 (natural protein)” came in with a stoichiometry N in assay [1] of 5. For the substance “SH1 penton protein VP9 (natural protein)”, the stoichiometry N in assay [2] was found to be 5.
